Laboratory results from PMC8701324, “Structural Insight into the Mechanism of PALB2 Interaction with MRG15” (Genes, 2021).
Blank lines part the entries; values can stand above or below the binder they belong to. Where no end group is shown, it is not given here.

Key:
Conditions in all cases: both partners purified
[1] = molecular target: T1, MRG15 MRG domain, amino acids 155-323 (UniProt Q9UBU8-2 155-323); assay: pull-down; His-tagged PALB2 peptide (0.1 mg/mL) bound to Ni-NTA beads, MRG15 155-323 (0.1 mg/mL) added for 30 min; Buffer B (25 mM HEPES pH 7.5, 10% glycerol, 2 mM CHAPS, 300 mM NaCl), washes with 20 mM imidazole, elution with 250 mM imidazole, SDS-PAGE
T1 construct: MRG15 (Morf-related gene on chromosome 15), MRG domain, amino acids 155-323; Cloned into the pET28b+-based pSMT3 vector; also called MRG15^155-323; MRG15 fragment; source: E. coli BL21*, purified (Ni-NTA, SUMO tag cleaved with Ulp1, second Ni-NTA flowthrough); not shown: 6xHis, N-terminal, cleaved; SUMO, N-terminal, cleaved
T1 sequence (Q9UBU8 194-362): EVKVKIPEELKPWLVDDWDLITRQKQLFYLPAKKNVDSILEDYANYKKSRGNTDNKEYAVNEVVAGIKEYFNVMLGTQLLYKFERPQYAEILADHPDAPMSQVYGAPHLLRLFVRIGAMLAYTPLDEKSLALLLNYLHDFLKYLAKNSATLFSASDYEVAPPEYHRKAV

[2] = molecular target: T1, MRG15 MRG domain, amino acids 155-323; assay: fluorescence polarisation; fluorescence anisotropy; MRG15 fragment serially diluted from 10 uM to 0.6 nM against 10 nM FAM-PALB2 597-630; 25 mM HEPES pH 8.0, 1 mM TCEP, 10% DMSO, 200 mM NaCl; four-parameter logistic fit, EC50 taken as Kd
[3] = molecular target: T1, MRG15 MRG domain, amino acids 155-323; assay: fluorescence polarisation; fluorescence anisotropy competition; mutant PALB2 597-630 peptides serially diluted from 10 uM to 0.6 nM against a preformed complex of MRG15 and FAM-PALB2; 25 mM HEPES pH 8.0, 1 mM TCEP, 10% DMSO, 200 mM NaCl; room temperature

- binding result [1]: binds
B1: 6xHis-PALB2^597-630 (peptide, UniProt Q86YC2 597-630, looked up)
chain: MLSLKQLLSFLSITDFQLPDEDFGPLKLEKVKSC
notes: Cloned into pMCSG7; also called His-tagged PALB2 peptide; source: E. coli BL21*, purified (Ni-NTA from 8 M urea, washed down to 1 M urea); not shown: 6xHis, N-terminal, kept

- Kd [2]: 23.4 ± 5 nM
B2: fluorescein-labeled PALB2^597-630 peptide (peptide, UniProt Q86YC2 597-630, looked up)
peptide: MLSLKQLLSFLSITDFQLPDEDFGPLKLEKVKSC
modifications: also: fluorescein (FAM) label, position not given here
notes: also called FAM-PALB2; source: synthetic peptide, bought: Genscript Biotech

- fold reduction in binding affinity against the wild-type peptide [3]: 5 fold
B3: PALB2^597-630 peptide Pro615Ser (peptide, UniProt Q86YC2 597-630, looked up)
peptide: MLSLKQLLSFLSITDFQLSDEDFGPLKLEKVKSC
notes: also called Pro615 to serine; source: synthetic peptide, bought: Genscript Biotech

- fold reduction in binding affinity against the wild-type peptide [3]: 2 fold
B4: PALB2^597-630 peptide Asp616His (peptide, UniProt Q86YC2 597-630, looked up)
peptide: MLSLKQLLSFLSITDFQLPHEDFGPLKLEKVKSC
notes: also called Asp616 with histidine; source: synthetic peptide, bought: Genscript Biotech

- binding result [3]: binds
B5: PALB2^597-630 peptide Pro621Thr (peptide, UniProt Q86YC2 597-630, looked up)
peptide: MLSLKQLLSFLSITDFQLPDEDFGTLKLEKVKSC
notes: also called Pro621 by threonine; source: synthetic peptide, bought: Genscript Biotech
